Measured values: paper doi:10.1101/857730

Biological target: Photorhabdus luminescens TcdA1 (TcA subunit of the Tc toxin) (P. luminescens) (UniProt Q9RN43)
Assay: cryo-EM structure

Substance: Photorhabdus luminescens TcdA1 (TcA subunit of the Tc toxin), Q9RN43 1-2516
- stoichiometry N: 5
